Consider one molecule from patent US20170088602A1 (Bristol-Myers Squibb, published 2017).

Assay [1] has as its target T1, human Activin A (R&D Systems) (human, UniProt P08476 311-426).
T1 sequence (looked up): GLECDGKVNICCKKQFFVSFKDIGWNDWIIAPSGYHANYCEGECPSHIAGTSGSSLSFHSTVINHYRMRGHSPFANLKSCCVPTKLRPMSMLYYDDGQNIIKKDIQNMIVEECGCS
The experiment in a line: SPR format A set-up. The text has this:
Anti-human Fc antibody (Biacore/GE) was immobilized on a Biacore CM5 chip via NHS/EDC coupling according to the manufacturer's instructions. […] A concentration range of anti-myostatin Adnectin was applied across all flow cells in HBSP running buffer. Regeneration of the chip surface between cycles was accomplished with two 30 second pulses of 3M MgCl₂. Kinetic traces of reference-subtracted sensorgrams were fit to a 1:1 binding model using Biaevaluation software.

The target in assay [2] is T2, human myostatin (mature, recombinant; R&D Systems) (human, UniProt O14793 267-375).
T2 construct: biotinylated in the mRNA display selection; also called GDF-8; mature myostatin
T2 sequence: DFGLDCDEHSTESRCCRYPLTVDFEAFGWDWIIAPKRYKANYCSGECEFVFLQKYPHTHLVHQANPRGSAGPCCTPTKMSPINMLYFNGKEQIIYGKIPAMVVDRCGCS
Kind of assay: competitive ELISA: 10 nM myostatin preincubated with soluble ActRIIb-Fc, then binding to plate-coated ActRIIb-Fc detected with biotinylated anti-myostatin polyclonal; % competition. On the procedure:
Competitive ELISA: Competitive binding assays to evaluate the ability of anti-myostatin Adnectins to compete with the ActRIIB receptor binding to myostatin were carried out using competitive ELISA. Nunc Maxisorp plates were coated with 2 μg/mL ActRIIb-Fc (R&D Systems) in 0.2M sodium carbonate pH 9.6 buffer overnight at 4° C. After washing with PBS-T (PBS containing 0.05% Tween-20), wells were blocked with OptEIA buffer (BD Biosciences) for 1 h at 25° C. with shaking. Myostatin (10 nM; R&D Systems) was preincubated with a concentration range of Adnectin or ActRIIb-Fc competitor (0.2 pM to 1 μM) in OptEIA buffer for 1 h at 25° C. with shaking. The blocked and coated assay plate was washed with PBS-T, and then myostatin/competitor mixtures were added and incubated for 30 min at 25° C. with shaking. The assay plate was washed with PBS-T, after which bound myostatin was detected with 1:1000 biotinylated goat anti-myostatin polyclonal (R&D Systems) diluted in OptEIA, for 1 h at 25° C. with shaking. After washing with PBS-T, 1:5000 Streptavidin-HRP (Thermo/Pierce) diluted in OptEIA was added, followed by incubation for 30 min at 25° C. with shaking. The assay plate was developed with TMB (BD Biosciences), quenched with 2N sulfuric acid, and absorbance read at A450.

B1: ActRIIb-Fc (R&D Systems) (Fc fusion, human, UniProt Q13705 19-134, looked up, not shown: a dimerising Fc or GST)
chain: SGRGEAETRECIYYNANWELERTNQSGLERCEGEQDKRLHCYASWRNSSGTIELVKKGCWLDDFNCYDRQECVATEENPQVYFCCCEGNFCNERFTHLPEAGGPEVTYEPPPTAPT
modifications: Alexa Fluor 647 label in the HTRF assay
notes: also called rhActRIIb-Fc; Human Activin RIIB Fc Chimera
Turning to B1, the binding result in assay [1] is recorded as “binds”. In assay [2], the “IC50 (read off the curve)” value is about 1 nM.
